Measurements: patent US20260077071A1, “Targeted Delivery of Theranostic Agents” (Peter MacCallum Cancer Institute, priority 2022, published 2026)
Square brackets hold non-standard residues; d marks the D form. Peptide text beside a SMILES is read from it. * marks the point of attachment. DOTA = O=C(O)CN1CCN(CC(=O)O)CCN(CC(=O)*)CCN(CC(=O)O)CC1; NMe1Nal = CN[C@@H](Cc1cccc2ccccc12)C(=O)O; NMeNle = CCCC[C@H](NC)C(=O)O; Sar = CNCC(=O)O

Legend:
[1] = LogD7.4 determination (PBS pH 7.4 / n-octanol); format: physicochemical; settings: PBS/Octanol mix, n = 5
Procedure: The distribution coefficients (LogD7.4) of radiolabelled compounds [^68Ga]Ga-1-4, and [^68Ga]Ga-Cmp ex-2 were assayed by measuring radioactivity distribution in the aqueous phase (phosphate buffer pH7.4) and the organic phase (n-octanol). To determine the distribution coefficient (LogD), Ga-68 radiolabelled compounds were diluted to 20 pmol/mL in PBS (pH 7.4) and an equal volume of n-octanol was added. The mixture was vortexed vigorously for 10 cycles of 1 min at room temperature before being centrifuged for 6 min to separate the two phases. Equal volumes from each phase were aliquoted into individual counting tubes and analysed for 1 min using the Perkin Elmer 2480 Wizard2™ gamma counter (PerkinElmer, Massachusetts, USA). The distribution coefficient was calculated using the following equation [formula]

[2] = system: A431 CCK2R cells; design: species or system BALB/c nu/nu mice; settings: mouse, in vivo, iv
Procedure: The diagnostic efficacy of Compounds [^68Ga]Ga-1-4 and [^68Ga]Ga-Cmp ex-2 was assessed using static small animal PET imaging and quantifying biodistribution studies. Female BALB/c nu/nu mice (age 8-10 weeks) were inoculated subcutaneously on the right flank with 3×10^6 A431 CCK2R cells in PBS:Matrigel (1:1). Mice were weighed and tumours measured twice weekly using electronic callipers with tumour volume (mm^3) calculated as length×width×height×π/6. Mice were assigned to imaging and/or biodistribution groups (tumour volumes: 50-500 mm^3). The respective Ga-68 labelled tracer (4-5 MBq, 100 μL, 13.7-14.2 pmoles) was mixed with vehicle solution (75 μL, DMSO:Tween 80:water, 2:2:6 v/v/v) and then administered to six mice intravenously via tail vein injection. Three mice were euthanised for biodistribution 1 h post injection and selected tissues were excised, weighed and counted using a Capintec (Captus 4000e) gamma counter. Three mice were anaesthetised using 1.5% isoflurane and imaged at 1 and 2 h with a G8 Small Animal PET/CT scanner (Perkin Elmer/Sofie Biosciences). A 10 min static PET scan was acquired, followed immediately by a CT scan. PET images were acquired using the G8 acquisition engine software and reconstructed using a 3D maximal likelihood and expectation maximization (ML-EM) algorithm. PET images were analysed using VivoQuant software, version 3.0 (inviCRO Imaging Services and Software) to quantify maximum standardised uptake value in regions of interest (SUVmax). After imaging the 2 h time point the mice were harvested for biodistribution analysis as above.
For blocking CCK2R binding a solution of N-[(3R)-2,3-Dihydro-1-[2-(2-methylphenyl)-2-oxoethyl]-2-oxo-5-phenyl-1H-1,4-benzodiazepin-3-yl]-N′-(3-methylphenyl)-urea (YM022; Sigma Aldrich) was used. […]

[3] = in vitro; format: in vitro ADME, mouse
Procedure: Drug detoxification, drug metabolism and metabolic stability are important determinants of the efficacy of theranostic candidates in clinical settings. To assess metabolic stability, radiolabelled Compounds [^68Ga]Ga-1-4 and comparative example-2 ([^68Ga]Ga-Cmp ex-2) were challenged by incubation in either human serum, mouse liver or kidney homogenates and HEPES buffer as a negative control. Duplicate samples (750-900 pmol/mL) were incubated at 37° C. with pooled human serum, 15% mouse kidney homogenate, 30% mouse liver homogenate or 20 mM HEPES, pH 7.3 (control). Human blood was collected and serum prepared using SSTII advance vacutainer tubes according to the manufacturer's instructions (Becton Dickinson, New Jersey, USA). Mouse kidney and liver homogenates were prepared by washing the tissues in ice-cold HEPES buffer, pH 7.3 and placing them in pre-chilled tubes containing HEPES buffer and 2.38 mm metal beads (Mo-Bio Laboratories, Hilden, Germany). Tissues were homogenised using the PowerLyzer24 homogeniser (Qiagen, Hilden, Germany) according to the manufacturer's instructions. Ga-68 radiolabelled peptides were incubated with the various lysates at 37° C. and samples were collected at 15, 30, 60 and 90 min. Reactions were terminated by addition of an equal volume of acetonitrile and centrifugation for 2 min at 15,000 rpm. Supernatants were diluted in water before being analysed by HPLC using a Kinetex C18 XB column (5 μm 4.6×150 mm), eluted at 1.5 mL/min of gradient 20-60% MeCN in water containing 0.1% formic acid over 7 min.

What does the source list for CCCC[C@@H](C(=O)N[C@@H](CC(=O)O)C(=O)N(C)[C@@H](Cc1cccc2ccccc12)C(N)=O)N(C)C(=O)[C@H](Cc1c[nH]c2ccccc12)NC(=O)CN(C)C(=O)[C@H](Cc1ccc(O)cc1)NC(=O)[C@H](C)NC(=O)[C@@H](CCC(=O)O)NC(=O)[C@@H](CCC(=O)O)NC(=O)[C@@H](CCC(=O)O)NC(=O)[C@@H](C)NC(=O)[C@@H](CCC(=O)O)NC(=O)[C@@H](CCC(=O)O)NC(=O)CN1CCN(CC(=O)O)CCN(CC(=O)O)CCN(CC(=O)O)CC1 [[^68Ga]Ga-4, metal not drawn] ({DOTA}-[dE][dE][dA][dE][dE][dE]AY[Sar]W[NMeNle]D[NMe1Nal]-NH2)?
LogD7.4 [1]: −2.59 ± 0.02; tumour to kidney ratio [2]: best tumour to kidney ratio; metabolism in kidney homogenates [3]: no observable metabolites detected; metabolism in liver homogenates [3]: no observable metabolites detected

With CCCC[C@@H](C(=O)N[C@@H](CC(=O)O)C(=O)N(C)[C@@H](Cc1cccc2ccccc12)C(N)=O)N(C)C(=O)[C@H](Cc1c[nH]c2ccccc12)NC(=O)CN(C)C(=O)[C@H](Cc1ccc(O)cc1)NC(=O)[C@H](C)NC(=O)[C@@H](CCC(=O)O)NC(=O)[C@@H](CCC(=O)O)NC(=O)[C@@H](CCC(=O)O)NC(=O)[C@@H](CCC(=O)O)NC(=O)[C@@H](CCC(=O)O)NC(=O)[C@@H](CCC(=O)O)NC(=O)CN1CCN(CC(=O)O)CCN(CC(=O)O)CCN(CC(=O)O)CC1 [[^68Ga]Ga-Cmp ex-2, metal not drawn, reference compound] ({DOTA}-[dE][dE][dE][dE][dE][dE]AY[Sar]W[NMeNle]D[NMe1Nal]-NH2) as the compound, how does the LogD7.4 [1] read?
Its LogD7.4 is −2.97 ± 0.13.

And the “renal / kidney uptake” value [2]?
Its value is “highest renal uptake”.

And the tumour uptake [2]?
Its tumour uptake is “best tumour uptake”.

What about the “metabolism in kidney homogenates” value [3] of the same compound?
Its value is “no observable metabolites detected”.

And the “metabolism in liver homogenates” value [3]?
Its value is “no observable metabolites detected”.
